System: substrate protein (Seq Id no. 1) (URSCREENSARS-COV-2)

trypsin
cleavage bands on 15% SDS-PAGE (Sypro Ruby stain): We could clearly see the cleavage bands of expected molecular weight after gel staining

Source: patent US20250003966
